# From patent publication US20230312646A1 (published 2023)
# How the values were obtained:
# [1] = target: P47 (P32 with proline replaced by octahydroindole-2-carboxylic acid, Oic); experiment: ITC, 25 C
# [2] = target: P50 (hexapeptide with Oic and a C-terminal 3,4-dichlorinated phenylalanine); experiment: ITC, 25 C
binder,measurement,setting,value
"Pseudomonas aeruginosa sliding clamp (other, also called ^PaSC; P. aeruginosa) MHFTIQREALLKPLQLVAGVVERRQTLPVLSNVLLVVEGQQLSLTGTDLEVELVGRVVLEDAAEPGEITVPARKLMDICKSLPNDVLIDIRVEEQKLLVKAGRSRFTLSTLPANDFPTVEEGPGSLNFSIAQSKLRRLIDRTSFAMAQQDVRYYLNGMLLEVNGGTLRSVATDGHRLAMCSLDAQIPSQDRHQVIVPRKGILELARLLTEQDGEVGIVLGQHHIRATTGEFTFTSKLVDGKFPDYERVLPRGGDKLVVGDRQQLREAFSRTAILSNEKYRGIRLQLSNGLLKIQANNPEQEEAEEEVQVEYNGGNLEIGFNVSYLLDVLGVIGTEQVRFILSDSNSSALVHEADNDDSAYVVMPMRL",Kd,[1],201 nM
same,Kd,[2],20 nM
